# B1: His-tagged human Sar1A (H79G) [human] / RRFR peptides (first intracellular loop of Fzd6) [mouse] (parent complex)
# chain 1: not shown
# chain 2: VRRFRYPERPC
# Variants of: B1
# Test: peptide pull-down (peptides linked to thiopyridone-Sepharose 6B), immunoblot quantification; n = 3; parent: 1; read off a plot
row,Variant,ratio to parent
1,"chain 2 R2A, chain 2 R3A, chain 2 R5A",~0.08
